Changes are numbered by the printed parent chain. Names and notes keep the numbering of the source.
B1: JTP005: protease variant of SEQ ID NO: 3: A112P (protein, listed as Thermoascus aurantiacus)
chain: MRLVASLTALVALSVPVFPAAVNVKRASSYLEITLSQVSNTLIKAVVQNTGSDELSFVHLNFFKDPAPVKKVSVYRDGSEVQFEGILSRYKSTGLSRDAFTYLAPGESVEDVFDIASTYDLTSGGPVTIRTEGVVPYATANSTDIAGYISYSSNVLTIDVDGAAAATVSKAITPLDRRTRISSCSGSRQSALTTALRNAASLANAAADAAQSGSASKFSEYFKTTSSSTRQTVAARLRAVAREASSSSSGATTYYCDDPYGYCSSNVLAYTLPSYNIIANCDIFYTYLPPLTSTCHAQDQATTALHEFTHAPGVYSPGTDDLAYGYQAAMGLSSSQAVMNADTYALYANAIYLGC
B2: JTP004: protease variant of SEQ ID NO: 3: S87P (protein, listed as Thermoascus aurantiacus)
chain: B1 chain with S265P, P290A
B3: JTP014: protease variant of SEQ ID NO: 3: D79L/S87P/A112P (protein, listed as Thermoascus aurantiacus)
chain: B1 chain with D257L, S265P
B4: JTP013: protease variant of SEQ ID NO: 3: D79L/S87P/A112P (protein, listed as Thermoascus aurantiacus)
chain: B1 chain with D257L, S265P
B5: JTP012: protease variant of SEQ ID NO: 3: D79L/S87P (protein, listed as Thermoascus aurantiacus)
chain: B1 chain with D257L, S265P, P290A
B6: JTP011: protease variant of SEQ ID NO: 3: D79M (protein, listed as Thermoascus aurantiacus)
chain: B1 chain with D257M, P290A
B7: JTP016: protease variant of SEQ ID NO: 3: A73C (protein, listed as Thermoascus aurantiacus)
chain: B1 chain with A251C, P290A
B8: JTP021: protease variant of SEQ ID NO: 3: M152R (protein, listed as Thermoascus aurantiacus)
chain: B1 chain with P290A, M330R
B9: JTP009: protease variant of SEQ ID NO: 3: D79K (protein, listed as Thermoascus aurantiacus)
chain: B1 chain with D257K, P290A
B10: JTP008: protease variant of SEQ ID NO: 3: R2P (protein, listed as Thermoascus aurantiacus)
chain: B1 chain with R180P, P290A
B11: JTP010: protease variant of SEQ ID NO: 3: D79L (protein, listed as Thermoascus aurantiacus)
chain: B1 chain with D257L, P290A
B12: JTP019: protease variant of SEQ ID NO: 3: A126V (protein, listed as Thermoascus aurantiacus)
chain: B1 chain with P290A, A304V
B13: JTP053: protease variant of SEQ ID NO: 3: S41R/D79L/S87P/A112P/D142L/S157K (protein, listed as Thermoascus aurantiacus)
chain: B1 chain with S219R, D257L, S265P, D320L, S335K
B14: JTP052: protease variant of SEQ ID NO: 3: D79L/S87P/A112P/D142L/S157K (protein, listed as Thermoascus aurantiacus)
chain: B1 chain with D257L, S265P, D320L, S335K
B15: JTP045: protease variant of SEQ ID NO: 3: S41R/D79L/S87P (protein, listed as Thermoascus aurantiacus)
chain: B1 chain with S219R, D257L, S265P, P290A
B16: JTP048: protease variant of SEQ ID NO: 3: D79L/S87P/D104R (protein, listed as Thermoascus aurantiacus)
chain: B1 chain with D257L, S265P, D282R, P290A
B17: JTP047: protease variant of SEQ ID NO: 3: D79L/S87P/S157K (protein, listed as Thermoascus aurantiacus)
chain: B1 chain with D257L, S265P, P290A, S335K
B18: JTP046: protease variant of SEQ ID NO: 3: D79L/S87P/Q158W (protein, listed as Thermoascus aurantiacus)
chain: B1 chain with D257L, S265P, P290A, Q336W
B19: JTP040: protease variant of SEQ ID NO: 3: T54R/D79L/S87P (protein, listed as Thermoascus aurantiacus)
chain: B1 chain with T232R, D257L, S265P, P290A
B20: JTP042: protease variant of SEQ ID NO: 3: Q53K/D79L/S87P/I173V (protein, listed as Thermoascus aurantiacus)
chain: B1 chain with Q231K, D257L, S265P, P290A, I351V
B21: JTP036: protease variant of SEQ ID NO: 3: D79L/S87P/D142L (protein, listed as Thermoascus aurantiacus)
chain: B1 chain with D257L, S265P, P290A, D320L
B22: JTP051: protease variant of SEQ ID NO: 3: S41R/D79L/S87P/A112P/D142L (protein, listed as Thermoascus aurantiacus)
chain: B1 chain with S219R, D257L, S265P, D320L
B23: JTP043: protease variant of SEQ ID NO: 3: Q53R/D79L/S87P (protein, listed as Thermoascus aurantiacus)
chain: B1 chain with Q231R, D257L, S265P, P290A
B24: JTP054: protease variant of SEQ ID NO: 3: ΔS5/D79L/S87P (protein, listed as Thermoascus aurantiacus)
chain: MRLVASLTALVALSVPVFPAAVNVKRASSYLEITLSQVSNTLIKAVVQNTGSDELSFVHLNFFKDPAPVKKVSVYRDGSEVQFEGILSRYKSTGLSRDAFTYLAPGESVEDVFDIASTYDLTSGGPVTIRTEGVVPYATANSTDIAGYISYSSNVLTIDVDGAAAATVSKAITPLDRRTRISCSGSRQSALTTALRNAASLANAAADAAQSGSASKFSEYFKTTSSSTRQTVAARLRAVAREASSSSSGATTYYCLDPYGYCSPNVLAYTLPSYNIIANCDIFYTYLPALTSTCHAQDQATTALHEFTHAPGVYSPGTDDLAYGYQAAMGLSSSQAVMNADTYALYANAIYLGC
B25: JTP055: protease variant of SEQ ID NO: 3: ΔG8/D79L/S87P (protein, listed as Thermoascus aurantiacus)
chain: B24 chain with C183S, S184C, G185S

Tested on: zein
Assay: Relative activity assay of protease variants (zein micro titer plate)
Format: biochemical
Settings: Table 2
Protocol: Each well contains 200 microL of 0.05-0.1% of zein (Sigma), 0.25 mM ZnSO4 and 1% of agar in 20 mM sodium acetate buffer, pH 4.5.
Yeast clones on SC-glucose were inoculated to a well of a 96-well micro titre plate containing YPD+Zn medium and cultivated at 28° C. for 3 days. The culture supernatants were applied to a 96-well zein micro titer plate and incubated at at least 2 temperatures (ex. 60° C. and 65° C., 70° C. and 75° C., 70° C. and 80° C.) for more than 4 hours or overnight. The turbidity of zein in the plate was measured as A630 and the relative activity (higher/lower temperatures) was determined as an indicator of thermoactivity improvement. The clones with higher relative activity than the parental variant were selected and the sequence was determined.

Going from B1 to B2, the “Relative activity 65° C./60° C.” value rises from 43% to 45%.

Going from B3 to B4, the “Relative activity 65° C./60° C.” value rises from 88% to 90%.

Going from B5 to B6, the “Relative activity 65° C./60° C.” value falls from 86% to 73%.

First: B7
Second: B8
The “Relative activity 65° C./60° C.” value of the first is lower: 52% for the first, 59% for the second.

Going from B9 to B10, the “Relative activity 65° C./60° C.” value rises from 69% to 71%.

Going from B11 to B12, the “Relative activity 65° C./60° C.” value falls from 75% to 69%.

Same assay, conditions: Table 3

Compared with B13, B14 is lower in “Relative activity 75° C./70° C.” value: 113% for the first, 111% for the second.

Going from B22 to B24, the “Relative activity 75° C./70° C.” value falls from 102% to 92%.

For B25, the “Relative activity 75° C./70° C.” value was 95%.

First: B15
Second: B16
The “Relative activity 75° C./65° C.” value of the first is lower: 82% for the first, 88% for the second.

Going from B17 to B18, the “Relative activity 75° C./65° C.” value rises from 85% to 96%.

Compared with B19, B20 is higher in “Relative activity 75° C./65° C.” value: 71% for the first, 108% for the second.

Going from B21 to B23, the “Relative activity 75° C./65° C.” value rises from 73% to 80%.

In the case of B21, the “Relative activity 70° C./65° C.” value is reported as 73%.
